Key:
[1] = target: T1, NTF of c-CDCP1 Cut 3 ectodomain (ending after K369) (human, UniProt Q9H5V8 30-369); test: co-purification after co-transfection
T1 sequence (looked up): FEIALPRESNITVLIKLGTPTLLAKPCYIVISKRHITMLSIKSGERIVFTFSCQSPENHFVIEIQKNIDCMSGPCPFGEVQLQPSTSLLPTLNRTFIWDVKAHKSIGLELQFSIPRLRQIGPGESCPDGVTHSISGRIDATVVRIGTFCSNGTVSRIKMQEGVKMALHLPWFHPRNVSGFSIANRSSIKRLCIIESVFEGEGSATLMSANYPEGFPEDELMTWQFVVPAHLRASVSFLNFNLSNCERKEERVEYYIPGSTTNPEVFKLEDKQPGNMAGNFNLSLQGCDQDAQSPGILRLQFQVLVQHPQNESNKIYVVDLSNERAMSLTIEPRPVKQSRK

[2] = target: T2, NTF of c-CDCP1 Cut 1 ectodomain (ending after K365) (human, UniProt Q9H5V8 30-365); test: SEC
T2 sequence (looked up): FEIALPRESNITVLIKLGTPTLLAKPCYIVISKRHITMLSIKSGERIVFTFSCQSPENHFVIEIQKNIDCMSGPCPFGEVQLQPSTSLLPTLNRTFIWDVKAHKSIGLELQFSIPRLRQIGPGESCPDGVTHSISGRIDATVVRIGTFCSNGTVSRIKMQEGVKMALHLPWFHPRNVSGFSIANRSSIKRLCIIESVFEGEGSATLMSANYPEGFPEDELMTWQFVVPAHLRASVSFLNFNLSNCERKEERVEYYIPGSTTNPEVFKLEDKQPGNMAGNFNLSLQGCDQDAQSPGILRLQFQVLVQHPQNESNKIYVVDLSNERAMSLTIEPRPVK

[3] = target: T3, NTF of c-CDCP1 Cut 2 ectodomain (ending after R368) (human, UniProt Q9H5V8 30-368); test: SEC
T3 sequence (looked up): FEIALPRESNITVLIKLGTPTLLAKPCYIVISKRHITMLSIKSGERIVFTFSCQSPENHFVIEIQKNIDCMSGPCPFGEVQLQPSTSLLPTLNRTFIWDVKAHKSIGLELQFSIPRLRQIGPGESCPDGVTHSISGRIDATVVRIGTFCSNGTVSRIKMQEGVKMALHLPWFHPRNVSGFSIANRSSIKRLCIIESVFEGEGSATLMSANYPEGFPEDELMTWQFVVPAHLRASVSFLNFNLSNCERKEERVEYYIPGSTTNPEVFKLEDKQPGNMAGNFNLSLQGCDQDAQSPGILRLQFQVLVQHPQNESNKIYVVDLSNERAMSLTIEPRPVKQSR

B1: CTF ectodomain of c-CDCP1 Cut 3 (starting after K369) (domain or fragment, human, UniProt Q9H5V8 370-665, looked up)
chain: FVPGCFVCLESRTCSSNLTLTSGSKHKISFLCDDLTRLWMNVEKTISCTDHRYCQRKSYSLQVPSDILHLPVELHDFSWKLLVPKDRLSLVLVPAQKLQQHTHEKPCNTSFSYLVASAIPSQDLYFGSFCPGGSIKQIQVKQNISVTLRTFAPSFQQEASRQGLTVSFIPYFKEEGVFTVTPDTKSKVYLRTPNWDRGLPSLTSVSWNISVPRDQVACLTFFKERSGVVCQTGRAFMIIQEQRTRAEEIFSLDEDVLPKPSFHHHSFWVNISNCSPTSGKQLDLLFSVTLTPRTVD
Does B1 bind [1]?
Result: binds

B2: CTF ectodomain of c-CDCP1 Cut 1 (starting after K365) (domain or fragment, human, UniProt Q9H5V8 366-665, looked up)
chain: QSRKFVPGCFVCLESRTCSSNLTLTSGSKHKISFLCDDLTRLWMNVEKTISCTDHRYCQRKSYSLQVPSDILHLPVELHDFSWKLLVPKDRLSLVLVPAQKLQQHTHEKPCNTSFSYLVASAIPSQDLYFGSFCPGGSIKQIQVKQNISVTLRTFAPSFQQEASRQGLTVSFIPYFKEEGVFTVTPDTKSKVYLRTPNWDRGLPSLTSVSWNISVPRDQVACLTFFKERSGVVCQTGRAFMIIQEQRTRAEEIFSLDEDVLPKPSFHHHSFWVNISNCSPTSGKQLDLLFSVTLTPRTVD
Does B2 bind [2]?
Result: binds

B3: CTF ectodomain of c-CDCP1 Cut 2 (starting after R368) (domain or fragment, human, UniProt Q9H5V8 369-665, looked up)
chain: KFVPGCFVCLESRTCSSNLTLTSGSKHKISFLCDDLTRLWMNVEKTISCTDHRYCQRKSYSLQVPSDILHLPVELHDFSWKLLVPKDRLSLVLVPAQKLQQHTHEKPCNTSFSYLVASAIPSQDLYFGSFCPGGSIKQIQVKQNISVTLRTFAPSFQQEASRQGLTVSFIPYFKEEGVFTVTPDTKSKVYLRTPNWDRGLPSLTSVSWNISVPRDQVACLTFFKERSGVVCQTGRAFMIIQEQRTRAEEIFSLDEDVLPKPSFHHHSFWVNISNCSPTSGKQLDLLFSVTLTPRTVD
Does B3 bind [3]?
Result: binds
